Measured values published in US20140127759A1 (TORAY INDUSTRIES, published 2014).

Experiments:
[1] = biological target: R170A/R220A/Y227F/E449R mutant β-glucosidase (Pyrococcus furiosus); assay: gel filtration (Superdex 200), oligomeric state
[2] = biological target: the molecule itself; assay: gel filtration (Superdex 200), oligomeric state
Description: (§1) The molecular weights of the parent glucosidase and the mutants were determined by gel filtration using HiLood 26/60 Suuperdex 200 as the column, a 50 mM tris-hydrochloride (pH 8) and 150 mM sodium chloride as the buffer. The enzymes prepared in Example 2, Reference Example 1, and Example 9 were each added to the column and eluted with the buffer at a flow rate of 2 mL/min. The enzyme was detected by measuring absorbance at 280 nm. Ovoalbumin (44 kDa), conalbumin (75 kDa), aldolase (158 kDa), and ferritin (440 kDa) were used as molecular weight markers, and a calibration curve was drawn based on the elution time of each enzyme component. The molecular weights measured by gel filtration (observed molecular weights: kDa) and molecular weights estimated from the amino acid primary structures (estimated molecular weights: kDa) are summarized in Table 8.

[3] = biological target: the molecule itself; assay: gel filtration (Superdex 200), self-association
Description: as §1

[4] = biological target: the molecule itself; assay: blue-native PAGE, self-association
Description: Whether the parent β-glucosidase and our β-glucosidases, R170A mutant, R170A/R220A mutant, and R170A/R220A/Y227F mutant, form stable tetramers or not was investigated by blue-native PAGE.
In the blue-native PAGE, 3-12% Native-PAGE Bis-Tris Gel (Invitrogen Corporation) was used. Electrophoresis samples were prepared by dissolving 1 μg of each of the parent β-glucosidase, R170A mutant, R170A/R220A mutant, and R170A/R220A/Y227F mutant in a sample buffer (50 mM imidazole (pH 7.0), 50 mM NaCl, 5 mM 6-aminohexanoic acid, 0.5% Coomassie G250, and 0.5% DDM). NativeMark protein standard (Invitrogen Corporation) was used as molecular weight markers. In the electrophoresis, 50 mM Tricine, 7.5 mM imidazole (pH 7.0), and Coomassie G250 were added to […], whereas 25 mM imidazole (pH 7.0) was added to the cathode side. The electrophoresis was performed at a constant voltage of 150 V for 100 minutes. After fixation of bands, G-250 was decolorized.

Binder	Observed molecular weight (kDa) [2]	binding result [3]	also measured
R170A/R220A/Y227F/E449R mutant β-glucosidase (enzyme) AKFPKNFMFGYSWSGFQFEMGLPGSEVESDWWVWVHDKENIASGLVSGDLPENGPAYWHLYKQDHDIAEKLGMDCIRGGIEWARIFPKPTFDVKVDVEKDEEGNIISVDVPESTIKELEKIANMEALEHYRKIYSDWKERGKTFILNLYHWPLPLWIHDPIAVRKLGPDAAPAGWLDEKTVVEFVKFAAFVAYHLDDLVDMWSTMNEPNVVYNQGYINLASGFPPGFLSFEAAEKAKFNLIQAHIGAYDAIKEYSEKSVGVIYAFAWHDPLAEEYKDEVEEIRKKDYEFVTILHSKGKLDWIGVNYYSRLVYGAKDGHLVPLPGYGFMSERGGFAKSGRPASDFGWEMYPEGLENLLKYLNNAYELPMIITENGMADAADRYRPHYLVSHLKAVYNAMKEGADVRGYLHWSLTDNYEWAQGFRMRFGLVYVDFETKKRYLRPSALVFRRIATQKEIPEELAHLADLKFVTRK	–	–	Observed molecular weight (kDa) [1]: 92 kDa
R170A/R220A/Y227F/E459G mutant β-glucosidase (enzyme, start methionine not included; Estimated to be monomeric) AKFPKNFMFGYSWSGFQFEMGLPGSEVESDWWVWVHDKENIASGLVSGDLPENGPAYWHLYKQDHDIAEKLGMDCIRGGIEWARIFPKPTFDVKVDVEKDEEGNIISVDVPESTIKELEKIANMEALEHYRKIYSDWKERGKTFILNLYHWPLPLWIHDPIAVRKLGPDAAPAGWLDEKTVVEFVKFAAFVAYHLDDLVDMWSTMNEPNVVYNQGYINLASGFPPGFLSFEAAEKAKFNLIQAHIGAYDAIKEYSEKSVGVIYAFAWHDPLAEEYKDEVEEIRKKDYEFVTILHSKGKLDWIGVNYYSRLVYGAKDGHLVPLPGYGFMSERGGFAKSGRPASDFGWEMYPEGLENLLKYLNNAYELPMIITENGMADAADRYRPHYLVSHLKAVYNAMKEGADVRGYLHWSLTDNYEWAQGFRMRFGLVYVDFETKKRYLRPSALVFREIATQKEIPEGLAHLADLKFVTRK	50 kDa	no binding	–
R170A/R220A/Y227F/R448E mutant β-glucosidase (enzyme, start methionine not included; Estimated to be monomeric) AKFPKNFMFGYSWSGFQFEMGLPGSEVESDWWVWVHDKENIASGLVSGDLPENGPAYWHLYKQDHDIAEKLGMDCIRGGIEWARIFPKPTFDVKVDVEKDEEGNIISVDVPESTIKELEKIANMEALEHYRKIYSDWKERGKTFILNLYHWPLPLWIHDPIAVRKLGPDAAPAGWLDEKTVVEFVKFAAFVAYHLDDLVDMWSTMNEPNVVYNQGYINLASGFPPGFLSFEAAEKAKFNLIQAHIGAYDAIKEYSEKSVGVIYAFAWHDPLAEEYKDEVEEIRKKDYEFVTILHSKGKLDWIGVNYYSRLVYGAKDGHLVPLPGYGFMSERGGFAKSGRPASDFGWEMYPEGLENLLKYLNNAYELPMIITENGMADAADRYRPHYLVSHLKAVYNAMKEGADVRGYLHWSLTDNYEWAQGFRMRFGLVYVDFETKKRYLRPSALVFEEIATQKEIPEELAHLADLKFVTRK	70 kDa	no binding	–
R170A mutant β-glucosidase (enzyme, start methionine not included in the entry) AKFPKNFMFGYSWSGFQFEMGLPGSEVESDWWVWVHDKENIASGLVSGDLPENGPAYWHLYKQDHDIAEKLGMDCIRGGIEWARIFPKPTFDVKVDVEKDEEGNIISVDVPESTIKELEKIANMEALEHYRKIYSDWKERGKTFILNLYHWPLPLWIHDPIAVRKLGPDAAPAGWLDEKTVVEFVKFAAFVAYHLDDLVDMWSTMNEPNVVYNQGYINLRSGFPPGYLSFEAAEKAKFNLIQAHIGAYDAIKEYSEKSVGVIYAFAWHDPLAEEYKDEVEEIRKKDYEFVTILHSKGKLDWIGVNYYSRLVYGAKDGHLVPLPGYGFMSERGGFAKSGRPASDFGWEMYPEGLENLLKYLNNAYELPMIITENGMADAADRYRPHYLVSHLKAVYNAMKEGADVRGYLHWSLTDNYEWAQGFRMRFGLVYVDFETKKRYLRPSALVFREIATQKEIPEELAHLADLKFVTRK	–	–	binding result [4]: binds
parent β-glucosidase (Pyrococcus furiosus) (enzyme, Recombinant, expressed in E. coli; Homotetramer in crystal and in solution; also called wild-type; parent glucosidase) AKFPKNFMFGYSWSGFQFEMGLPGSEVESDWWVWVHDKENIASGLVSGDLPENGPAYWHLYKQDHDIAEKLGMDCIRGGIEWARIFPKPTFDVKVDVEKDEEGNIISVDVPESTIKELEKIANMEALEHYRKIYSDWKERGKTFILNLYHWPLPLWIHDPIAVRKLGPDRAPAGWLDEKTVVEFVKFAAFVAYHLDDLVDMWSTMNEPNVVYNQGYINLRSGFPPGYLSFEAAEKAKFNLIQAHIGAYDAIKEYSEKSVGVIYAFAWHDPLAEEYKDEVEEIRKKDYEFVTILHSKGKLDWIGVNYYSRLVYGAKDGHLVPLPGYGFMSERGGFAKSGRPASDFGWEMYPEGLENLLKYLNNAYELPMIITENGMADAADRYRPHYLVSHLKAVYNAMKEGADVRGYLHWSLTDNYEWAQGFRMRFGLVYVDFETKKRYLRPSALVFREIATQKEIPEELAHLADLKFVTRK	237 kDa	–	–
R170A/R220A/Y227F/R448G mutant β-glucosidase (enzyme, start methionine not included; Estimated to be monomeric) AKFPKNFMFGYSWSGFQFEMGLPGSEVESDWWVWVHDKENIASGLVSGDLPENGPAYWHLYKQDHDIAEKLGMDCIRGGIEWARIFPKPTFDVKVDVEKDEEGNIISVDVPESTIKELEKIANMEALEHYRKIYSDWKERGKTFILNLYHWPLPLWIHDPIAVRKLGPDAAPAGWLDEKTVVEFVKFAAFVAYHLDDLVDMWSTMNEPNVVYNQGYINLASGFPPGFLSFEAAEKAKFNLIQAHIGAYDAIKEYSEKSVGVIYAFAWHDPLAEEYKDEVEEIRKKDYEFVTILHSKGKLDWIGVNYYSRLVYGAKDGHLVPLPGYGFMSERGGFAKSGRPASDFGWEMYPEGLENLLKYLNNAYELPMIITENGMADAADRYRPHYLVSHLKAVYNAMKEGADVRGYLHWSLTDNYEWAQGFRMRFGLVYVDFETKKRYLRPSALVFGEIATQKEIPEELAHLADLKFVTRK	63 kDa	no binding	–
R170A/R220A mutant β-glucosidase (enzyme, start methionine not included; also called A170A/R220A mutant [sic]) AKFPKNFMFGYSWSGFQFEMGLPGSEVESDWWVWVHDKENIASGLVSGDLPENGPAYWHLYKQDHDIAEKLGMDCIRGGIEWARIFPKPTFDVKVDVEKDEEGNIISVDVPESTIKELEKIANMEALEHYRKIYSDWKERGKTFILNLYHWPLPLWIHDPIAVRKLGPDAAPAGWLDEKTVVEFVKFAAFVAYHLDDLVDMWSTMNEPNVVYNQGYINLASGFPPGYLSFEAAEKAKFNLIQAHIGAYDAIKEYSEKSVGVIYAFAWHDPLAEEYKDEVEEIRKKDYEFVTILHSKGKLDWIGVNYYSRLVYGAKDGHLVPLPGYGFMSERGGFAKSGRPASDFGWEMYPEGLENLLKYLNNAYELPMIITENGMADAADRYRPHYLVSHLKAVYNAMKEGADVRGYLHWSLTDNYEWAQGFRMRFGLVYVDFETKKRYLRPSALVFREIATQKEIPEELAHLADLKFVTRK	–	–	binding result [4]: binds
R170A/R220A/Y227F mutant β-glucosidase (enzyme, start methionine not included; Homodimer in crystal and by gel filtration; also called mutant (R170A/R220A/Y227F)) AKFPKNFMFGYSWSGFQFEMGLPGSEVESDWWVWVHDKENIASGLVSGDLPENGPAYWHLYKQDHDIAEKLGMDCIRGGIEWARIFPKPTFDVKVDVEKDEEGNIISVDVPESTIKELEKIANMEALEHYRKIYSDWKERGKTFILNLYHWPLPLWIHDPIAVRKLGPDAAPAGWLDEKTVVEFVKFAAFVAYHLDDLVDMWSTMNEPNVVYNQGYINLASGFPPGFLSFEAAEKAKFNLIQAHIGAYDAIKEYSEKSVGVIYAFAWHDPLAEEYKDEVEEIRKKDYEFVTILHSKGKLDWIGVNYYSRLVYGAKDGHLVPLPGYGFMSERGGFAKSGRPASDFGWEMYPEGLENLLKYLNNAYELPMIITENGMADAADRYRPHYLVSHLKAVYNAMKEGADVRGYLHWSLTDNYEWAQGFRMRFGLVYVDFETKKRYLRPSALVFREIATQKEIPEELAHLADLKFVTRK	129 kDa	–	–
